Results as given in patent publication US20140363422A1 (IMMUNOQURE, published 2014).
Like-named read-outs stand apart in the source and are kept apart here.

Assays:
[1] = molecular target: T1, human IL-22 (human, UniProt Q9GZX6 34-179); assay: SPR (ProteOn XPR36), antibody captured by anti-human IgG (L2), IL-22 injected at 100 to 1.23 nM and buffer
T1 construct: also called IL-22(h); interleukin-22
T1 sequence (looked up): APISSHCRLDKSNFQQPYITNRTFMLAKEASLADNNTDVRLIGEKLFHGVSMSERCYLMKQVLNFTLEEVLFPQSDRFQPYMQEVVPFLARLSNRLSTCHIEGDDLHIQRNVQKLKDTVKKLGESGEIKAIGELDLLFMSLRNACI

[2] = molecular target: T2, human IL-17F (human, UniProt Q96PD4 31-163); assay: ELISA, titration of antibody 9A2 on recombinant human IL17F
T2 construct: Bought recombinant protein; also called IL-17F (h); interleukin-17F
T2 sequence (looked up): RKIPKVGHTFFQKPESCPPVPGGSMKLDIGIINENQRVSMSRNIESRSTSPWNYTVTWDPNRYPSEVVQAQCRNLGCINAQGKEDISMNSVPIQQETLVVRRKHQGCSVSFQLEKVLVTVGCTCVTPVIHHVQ

[3] = molecular target: T2, human IL-17F; assay: EC50 in summary table; assay not named, taken as binding ELISA
[4] = molecular target: T2, human IL-17F; assay: SPR (ProteOn XPR36), antibody captured by anti-human IgG, IL-17F injected
[5] = molecular target: T2, human IL-17F; assay: cell-based or functional assay
[6] = molecular target: T1, human IL-22; assay: cell-based or functional assay
[7] = molecular target: T3, mouse IL-22 (mouse, UniProt Q9JJY9 34-179); assay: EC50 in summary table; assay not named, taken as binding ELISA; murine IL-22 (m)
T3 construct: also called murine IL-22; IL-22(m)
T3 sequence (looked up): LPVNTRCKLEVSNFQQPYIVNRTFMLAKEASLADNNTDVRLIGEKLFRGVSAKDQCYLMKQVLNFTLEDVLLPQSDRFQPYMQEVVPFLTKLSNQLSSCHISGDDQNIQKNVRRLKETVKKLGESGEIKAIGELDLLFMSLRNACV

[8] = molecular target: T1, human IL-22; assay: EC50 in summary table; assay not named, taken as binding ELISA; human IL-22 (h)
[9] = molecular target: T1, human IL-22; assay: EC50 in summary table; assay not named, taken as binding ELISA
[10] = molecular target: T4, IL-17A/IL-17F heterodimer (UniProt Q16552 24-155; Q96PD4 31-163); assay: cell-based or functional assay
T4 sequence (looked up) 1: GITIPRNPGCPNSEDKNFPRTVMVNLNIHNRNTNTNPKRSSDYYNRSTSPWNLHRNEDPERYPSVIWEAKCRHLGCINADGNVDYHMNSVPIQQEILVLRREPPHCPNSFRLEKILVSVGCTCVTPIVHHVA
T4 sequence (looked up) 2: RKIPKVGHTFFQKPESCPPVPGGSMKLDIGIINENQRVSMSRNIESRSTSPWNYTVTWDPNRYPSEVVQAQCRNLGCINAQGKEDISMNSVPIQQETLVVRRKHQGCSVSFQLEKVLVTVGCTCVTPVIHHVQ

[11] = molecular target: T5, human IL-17A (human, UniProt Q16552 24-155); assay: EC50 in summary table; assay not named, taken as binding ELISA; IL-17A (A)
T5 construct: Bought recombinant protein; also called CTLA-8
T5 sequence (looked up): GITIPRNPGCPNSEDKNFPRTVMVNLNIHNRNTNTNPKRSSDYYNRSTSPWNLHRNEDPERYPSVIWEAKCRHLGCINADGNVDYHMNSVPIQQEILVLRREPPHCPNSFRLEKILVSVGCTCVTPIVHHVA

[12] = molecular target: T1, human IL-22; assay: SPR (ProteOn XPR36), antibody captured by anti-human IgG (L3), IL-22 injected at 100 to 1.23 nM and buffer
[13] = molecular target: T2, human IL-17F; assay: EC50 in summary table; assay not named, taken as binding ELISA; IL-17F (F)
[14] = molecular target: T1, human IL-22; assay: SPR (ProteOn XPR36), antibody captured by anti-human IgG, IL-22 injected at 100 to 1.23 nM, 1:1 Langmuir fit, mean of two experiments
Experimental: (§1) Data was referenced using the interspot regions of the sensor chip.
(§2) For affinity determination of the antibodies of the present invention SPR measurements were performed using a ProteOn™ XPR36 instrument, according to the instructions of the manufacturer (BIO-RAD; Hercules Calif., USA). First, anti-human IgG was coupled simultaneously on 5 surfaces of the 6×6 interaction array of a GLC sensor chip by EDC/NHS chemistry, no antibody was sixth immobilized on the sixth surface, but the surface was treated with the same activation and deactivation protocol as the other five surfaces. The MABs (ligands) to be tested were injected afterwards into 6 channels of the chip (in the vertical direction) and simultaneously captured at very similar capture efficiency and percentage activity. […] Data was referenced using the interspot regions between the flow channels. […] Binding experiments were repeated twice and data is represented as a mean of two independent experiments.

[15] = molecular target: T1, human IL-22; assay: SPR (ProteOn XPR36), antibody captured by anti-human IgG, IL-22 injected at 100 to 1.23 nM, 1:1 Langmuir fit, grouped
Experimental: as §1, §2

[16] = molecular target: T1, human IL-22; assay: as above; remark: listed apart in the source
Experimental: as §1, §2

[17] = molecular target: T1, human IL-22; assay: SPR (ProteOn XPR36), antibody captured by anti-human IgG (L1), IL-22 injected at 100 to 1.23 nM and buffer

B1: IL-17F specific antibody 9A2 (antibody, human IgG1, kappa, V domains shown)
VH: EVQLEESGGGLVQPGGSLRLSCAASGFPFSNYEMNWVRQAPGKGLEWISYISVSGGPAHYADSVKGRFTISRDDATKSLFLQMNRLRADDTAVYYCVRREYVTGRNYNYYPYMDVWGTGTTVTVSP
VL: DIQMTQSPSSLSASVGDRVTITCRASQTISDYLNWYQHKPGEAPKLLIYSASTLQRGVPSRFSGSGSGTDFVFTISSLQSDDFATYYCQQTSSTALTFGGGTKVEVKR
notes: also called a-IL17-9A2
With B1 the binding result [1] was “no binding (tested: 100 nM)”, the “EC50 (read off the curve)” value [2] was roughly 0.02 µg/mL and the EC50 [3] was 0.003 µg/mL. The kon [4] was roughly 800000 M⁻¹ s⁻¹ and the “IC50 Neutralization (ng/ml); GRO-alpha production by NCTC 2544 keratinocytes” value (“IC50 Neutralization … by NCTC 2544 keratinocytes” below) [5] was 45 ng/mL.

B2: IL-22 specific antibody 41D11 (antibody, human IgG1, lambda, V domains shown)
VH: QVQLHESGPGLVKPSETLSVTCSLSGGSISSSSHLWAWIRQPPEKGLEYIGRIHYRGSVSYNPSLKSRAAISVDTAKNQFSLTLSAVTAADTSFYYCARLDMGAIDKWGQGTLVIVSS
V domain: QPVLTQSPSASASLGASIKLTCTLSSGHSNYDIAWHQQQSGKGPRFLMRVNNGGSHNKGDGIPDRFSGSSSGAERYLTISSLQSEDEADYYCQTWGTGTHVFGTG
notes: also called a-IL-22-41D11
B2 was tested, and the “IC50 Neutralization (ng/ml); IL-10 production by Colo205 cells” value [6] was 38 ng/mL, the EC50 [7] was 0.06 µg/mL and the EC50 [8] was 0.005 µg/mL.

B3: IL-22 specific antibody 51G4 (antibody, human IgG2, lambda, V domains shown)
VH: EVQLVQSGAEVKKPGASVKVSCKTSGYKFALYDIHWVRQAPGQGLEWMGWINAANGDTEYSQKFEGRVTITRDTSATTVYMELNSLTYGDTAVYYCAREEGLYNWFDPWGQGTLVTVSS
VL: SYELTQDPAVSVALGQTVRITCQGDSLRIYYANWYQQKPGQAPVLVIYGKSNRPSGIPDRFSASSSGNTASLTITGAQAEDEADYYCNSRDSSDKHPVPFGGGTKLTVLS
notes: also called a-IL-22-51G4
B3 was tested, and the EC50 [9] was 0.067 to 0.148 µg/mL.

B4: IL-17F and IL-17A specific antibody 17E3 (antibody, human IgG1, kappa, V domains shown)
VH: QVQLVQSGAEVAKPGASVRLSCKASGFSFIKYYMHWVRQAPGQGLEWMGVIEPTGGGTSSAQKFRDRVTLSRDTSTATVHLEVSRLTLEDTGIYFCVRDSIYCKHGTCHRTVIDAFDIWGQGTAVTVSS
VL: DIQMTQSPSSLSASVGDRVTITCRSSQDIKNDLAWYQQKPGKAPERLIYAASNLQSGVPSRFSGSGSGTEFSLTISGLQPEDFATYYCLQHNSYPLLTFGGGTKVEIKR
notes: also called a-IL17-17E3
In the case of B4, the kon [4] is reported as roughly 300000 M⁻¹ s⁻¹, the “IC50 Neutralization … by NCTC 2544 keratinocytes” value [5] is reported as 15 ng/mL and the “IC50 Neutralization … by NCTC 2544 keratinocytes” value [10] is reported as 12 ng/mL. The EC50 [11] was 0.824 µg/mL, the binding result [12] was “no binding (tested: 100 nM)” and the EC50 [13] was 0.002 µg/mL.

B5: IL-22 specific antibody 35G11 (antibody, human IgG4, lambda, V domains shown)
VH: QVQLVQSGSELRRPGASVNISCKASGYGFNTYAMNWVRQAPGQGPEWMGWINTDTGDPTYAQGFTGRFAFFLDTSASTAFLQITRLTGEDTAVYFCARTRNNWNGVYYHYSGLDVWGQGTTVTVSS
VL: QSVLTQPPSASGTPGQTVTISCSGSSPNLGDNYVYWYHQVPGTAPKLLIFRNTQRPSGVTDRFSGSKYGTSASLAISDLRSDDEGDFYCASWDDRLSRLVFGGGTKLTVLG
notes: also called a-IL-22-35G11; aIL-22 35G11
With B5 the Kd [14] was 39 pM, the EC50 [9] was 0.007 µg/mL and the Kd [15] was 45.7 pM. The koff [15] was 8.09e-05 s⁻¹, the kon [15] was 1.77e+06 M⁻¹ s⁻¹ and the binding result [4] was “no binding (tested: 100 nM to 1.23 nM)”.

B6: IL-22 specific antibody 30G1 (antibody, human IgG1, kappa, V domains shown)
VH: EVQLLESGGGLVQPGGSLRLSCAASGFTFSTYAMSWVRQAPGKGLEWVSTITSSGGATYHADSVKGRLTISRDNSKNTLYLEMNSLRVEDTAVYYCAKDWGRTVYAVIKDLDIWGQGTLVTVSS
VL: EIVMTQSPAILSVSPGERATLSCRASQSVSNYLAWFQQKPGQAPRLLIYDTSKRATGTPARFSGSGSGTDFTLTISSLEPEDFAVYFCQQRSDWPQYTFGQGTKLEIKR
notes: also called aIL-22 30G1
With B6 the Kd [14] was 36.5 pM, the EC50 [7] was 0.015 µg/mL and the Kd [16] was 35.2 pM. For the same binder, the koff [16] was 1.55e-05 s⁻¹, the kon [16] was 441000 M⁻¹ s⁻¹ and the EC50 [8] was 0.003 µg/mL. B6: no binding (tested: 100 nM to 1.23 nM) [4].

B7: IL-17F specific antibody 24D3 (antibody, human IgG1, lambda, V domains shown)
VH: EVKLEESGGDLVKPGGSLRLSCVASGFTFGTAWMSWVRQAPGKGLEWVGRISNKDTGGRIDYAAPVRGRFAISRDDSKATLFLQMNSLKTEDTAVYFCTTNFYDVLTGDHVDYWGQGTVVVVSS
VL: SYELTQPPSVSVSPGETARIPCSGETLPKKLVYWYQQKPGQAPVLMIYKDSERPSRISERFSGSNSGTMASLTISGVQAEDEADYYCQTSDSSGVVFGGGTKLTVLG
notes: also called a-IL17-24D3; aIL-17 24D3
In the case of B7, the binding result [17] is reported as “no binding (tested: 100 nM)”, the EC50 [3] is reported as 0.002 µg/mL and the kon [4] is reported as roughly 600000 M⁻¹ s⁻¹. The “IC50 Neutralization … by NCTC 2544 keratinocytes” value [5] was 12 to 22 ng/mL and the “IC50 Neutralization … by NCTC 2544 keratinocytes” value [10] was 6 to 14 ng/mL.
